Assay results taken from the supplement of paper PMC10126150.
± gives the standard deviation of the averaged measurements.

Test system: ATP
Assay: switch fluorescence ratio, 500 uM ATP over buffer (Cy3 cluster intensity, sum of 5 cycles each) (fold (ratio)); higher = stronger signal-on switching upon ATP binding; sequences stand for … in TCGTCGGCAGCGTCAGATGTGTATAAGAGACAGTTTTTTTTTTTTTTTTTTTTTTTTT…TC
Conditions: aptamer strand: ATP DNA aptamer (quencher-CACCTGGGGGAGTATTGCGGAGGAAGG + anchor), 100 nM annealed; ATP concentration: 500 uM
Summary of the method: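 Five buffer/ATP imaging cycles were run on Cy3-labelled switching-strand clusters on a modified Illumina MiSeq flow-cell, with NaOH stripping and re-annealing between cycles. In each cycle, clusters annealed to 100 nM quencher-labelled ATP aptamer were imaged in selection buffer, then after 15 min with 500 uM ATP at 22 °C. Per cluster, the fluorescence ratio is summed target-cycle over summed buffer-cycle Cy3 intensity, averaged per switch-domain sequence. Only clusters within 100-1000 RFU were kept.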
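Note: ATP exposure 15 min at 22 °C before imaging.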

Sequence	switch fluorescence ratio
AGGGAAATCT	1.034 ± 0.01
AGGGAAGAAC	1.006 ± 0.0073
AGGGAAGGGC	1.032 ± 0.0084
AGGGAATTGG	1.01 ± 0.044
AGGGACAACT	1.08 ± 0.0015
AGGGACGAGT	1.07 ± 0.11
AGGGACGCGC	1.07 ± 0.018
AGGGACGGTG	1 ± 0.056
AGGGAGAAGG	1 ± 0.011
AGGGAGATTT	0.99 ± 0.03
AGGGAGCCCG	1.01 ± 0.036
AGGGAGCTCC	1.01 ± 0.025
AGGGAGGAGC	0.923 ± 0.045
AGGGAGGGGT	0.983 ± 0.021
AGGGAGTTAT	1 ± 0.0014
AGGGATACTG	1.072 ± 0.0048
AGGGATCCTT	1.02 ± 0.031
AGGGATTAGC	0.988 ± 0.015
AGGGCAAAAT	1.02 ± 0.035
AGGGCAAGAG	1.38 ± 0.054
AGGGCAAGTG	0.996 ± 0.034
AGGGCAAGTT	1.01 ± 0.064
AGGGCAGAGG	0.98599 ± 0.00021
AGGGCAGCGG	1.03 ± 0.033
AGGGCAGTAT	1.06 ± 0.11

Sequence	switch fluorescence ratio
AGGGCCGGCG	1 ± 0.031
AGGGCGCGGA	1.05 ± 0.016
AGGGCGCGTT	0.9645 ± 0.0028
AGGGCGGTCA	0.996 ± 0.025
AGGGCGTATT	0.974 ± 0.026
AGGGCGTCTG	1.01 ± 0.058
AGGGCTAGTA	1 ± 0.034
AGGGGAAGAC	1.29 ± 0.41
AGGGGAAGGG	1.02 ± 0.012
AGGGGAATGT	0.979 ± 0.026
AGGGGACTTG	1.01 ± 0.06
AGGGGAGACC	0.9775 ± 0.0096
AGGGGAGGAG	0.974 ± 0.017
AGGGGATAGC	1.01 ± 0.017
AGGGGATGGC	0.946 ± 0.017
AGGGGATTAC	1.062 ± 0.0014
AGGGGATTCA	1.02 ± 0.02
AGGGGATTTT	1.04 ± 0.056
AGGGGCAAAT	1.01 ± 0.029
AGGGGCAAGA	1.04 ± 0.032
AGGGGCACGA	1.03 ± 0.024
AGGGGCAGGA	0.941 ± 0.06
AGGGGCATAG	1.007 ± 0.003
AGGGGCCGGT	1.01 ± 0.014
AGGGGCGGGA	0.962 ± 0.041

Sequence	switch fluorescence ratio
AGGGGCTAGG	0.983 ± 0.033
AGGGGCTTAT	1.01 ± 0.014
AGGGGCTTGC	0.956 ± 0.036
AGGGGCTTTG	1.03 ± 0.032
AGGGGCTTTT	0.998 ± 0.012
AGGGGGAAGC	1.02 ± 0.027
AGGGGGACAG	0.9761 ± 0.0039
AGGGGGAGGG	1.01 ± 0.03
AGGGGGAGTA	0.993 ± 0.027
AGGGGGCCGC	0.976 ± 0.087
AGGGGGCCGT	0.982 ± 0.042
AGGGGGCTCT	1.02 ± 0.029
AGGGGGGAGT	1.02 ± 0.031
AGGGGGGATG	0.992 ± 0.022
AGGGGGGCCA	1.02 ± 0.028
AGGGGGGCTC	0.98 ± 0.04
AGGGGGGGA	0.9821 ± 0.0079
AGGGGGGGTA	0.997 ± 0.033
AGGGGGGGTT	0.992 ± 0.033
AGGGGGGTAT	0.993 ± 0.027
AGGGGGTAAT	1.01 ± 0.049
AGGGGGTCTA	1.013 ± 0.0014
AGGGGGTGTC	1.075 ± 0.0097
AGGGGGTTCG	1.02 ± 0.027
AGGGGTAAAG	0.955 ± 0.021

Sequence	switch fluorescence ratio
AGGGGTAAGG	1.03 ± 0.033
AGGGGTAAGT	0.981 ± 0.011
AGGGGTATGG	0.998 ± 0.017
AGGGGTCAGG	1.022 ± 0.0055
AGGGGTGAAA	0.987 ± 0.021
AGGGGTGATG	0.9827 ± 0.001
AGGGGTGGTC	1.04 ± 0.017
AGGGGTGTG	1 ± 0.046
AGGGGTTAAG	0.954 ± 0.024
AGGGGTTAAT	0.985 ± 0.035
AGGGGTTGTG	1 ± 0.024
AGGGGTTGTT	1.07 ± 0.091
AGGGGTTTGA	1.01 ± 0.047
AGGGTAAAGG	0.989 ± 0.019
AGGGTAATGG	1.03 ± 0.021
AGGGTATCTC	1.08 ± 0.1
AGGGTATGAT	0.99 ± 0.025
AGGGTATTTC	1.02 ± 0.012
AGGGTCCACG	0.947 ± 0.015
AGGGTCTGCG	0.981 ± 0.025
AGGGTCTGGG	0.993 ± 0.034
AGGGTGAATA	1.005 ± 0.0027
AGGGTGACAT	0.999 ± 0.013
AGGGTGACGG	1.02 ± 0.031
AGGGTGATTG	1.009 ± 0.0077

Sequence	switch fluorescence ratio
AGGGTGGAGC	1.07 ± 0.092
AGGGTGGCGC	1.02 ± 0.021
AGGGTGGCGT	0.9459 ± 0.0075
AGGGTGGCTA	1.011 ± 0.0015
AGGGTGTGGT	0.9841 ± 0.0039
AGGGTGTTTT	1.01 ± 0.028
AGGGTTAATG	1.05 ± 0.017
AGGGTTACTG	1.04 ± 0.068
AGGGTTAGTG	0.979 ± 0.012
AGGGTTATTG	1.01 ± 0.047
AGGGTTGAAG	0.989 ± 0.035
AGGGTTGGAG	1.003 ± 0.0042
AGGGTTGTTA	0.982 ± 0.027
AGGGTTTGTG	1.11 ± 0.037
AGGGTTTGTT	1.02 ± 0.04
AGGGTTTTGG	0.999 ± 0.03
AGGTAATACG	1.098 ± 0.0067
AGGTAATGAA	0.967 ± 0.023
AGGTACAGTA	1.017 ± 0.0017
AGGTAGAAGA	0.97 ± 0.013
AGGTAGCATA	1.05 ± 0.03
AGGTAGCATG	1.01 ± 0.066
AGGTAGGACT	1 ± 0.014
AGGTAGGGCA	0.9762 ± 0.0049
AGGTAGGTGG	1.01 ± 0.019

Sequence	switch fluorescence ratio
AGGTAGGTTT	0.99 ± 0.017
AGGTAGTAAG	0.995 ± 0.031
AGGTAGTCTG	0.9756 ± 0.003
AGGTATCAGA	0.972 ± 0.021
AGGTCCTCTA	0.974 ± 0.059
AGGTCCTGTG	0.998 ± 0.016
AGGTCCTTCA	1.29 ± 0.046
AGGTCGGAAT	1.04 ± 0.028
AGGTCGGCAT	0.997 ± 0.02
AGGTCTAGTT	0.9995 ± 0.0089
AGGTGAATGG	1.02 ± 0.03
AGGTGATATG	1.0171 ± 0.00075
AGGTGCCTG	0.971 ± 0.035
AGGTGCTCTT	1 ± 0.053
AGGTGCTGGT	0.997 ± 0.033
AGGTGCTGTG	1.01 ± 0.051
AGGTGCTTGG	0.997 ± 0.026
AGGTGGAAGG	0.984 ± 0.021
AGGTGGAGGG	1 ± 0.032
AGGTGGCATT	1.04 ± 0.015
AGGTGGCCGT	0.963 ± 0.02
AGGTGGTGGG	1.01 ± 0.014
AGGTGTAGGC	0.979 ± 0.038
AGGTGTAGGG	1.01 ± 0.025
AGGTGTATTC	0.9962 ± 0.0058

Sequence	switch fluorescence ratio
AGGTGTCTTG	1.14 ± 0.074
AGGTGTGTGC	0.97 ± 0.014
AGGTGTTGGA	0.985 ± 0.032
AGGTGTTGGG	1.01 ± 0.035
AGGTGTTGGT	1.03 ± 0.025
AGGTGTTTGT	1.01 ± 0.028
AGGTTAACAG	0.9909 ± 0.0073
AGGTTAATGT	0.996 ± 0.032
AGGTTAATTG	0.9909 ± 0.0072
AGGTTACGAG	1 ± 0.02
AGGTTAGGGC	0.984 ± 0.018
AGGTTAGTGG	1.015 ± 0.01
AGGTTATGTG	0.999 ± 0.037
AGGTTCCTCT	1.04 ± 0.019
AGGTTCGGAG	1.04 ± 0.06
AGGTTGACTG	0.988 ± 0.1
AGGTTGAGAG	0.9515 ± 0.0075
AGGTTGAGGT	1.08 ± 0.12
AGGTTGGAGC	1 ± 0.021
AGGTTGGGCA	0.984 ± 0.0096
AGGTTGGGT	0.973 ± 0.025
AGGTTGTGCG	1 ± 0.042
AGGTTGTGCT	0.9644 ± 0.009
AGGTTGTGTG	0.959 ± 0.044
AGGTTGTTAG	1.01 ± 0.019

Sequence	switch fluorescence ratio
AGGTTTAAGG	0.9726 ± 0.0058
AGGTTTGCAA	1.04 ± 0.028
AGGTTTGCGA	1.02 ± 0.018
AGGTTTGCTA	0.959 ± 0.017
AGGTTTGTGT	1.01 ± 0.024
AGGTTTGTTG	0.998 ± 0.016
AGGTTTGTTT	0.976 ± 0.0092
AGGTTTTCTA	1.012 ± 0.0036
AGGTTTTGGA	0.98 ± 0.021
AGTAAAGCGG	1 ± 0.027
AGTAAAGGGA	1.02 ± 0.029
AGTAAATAGT	1.0008 ± 3.6e-05
AGTAAATGGA	0.9854 ± 0.0055
AGTAAGGGAG	1.01 ± 0.082
AGTAAGGGGG	0.998 ± 0.035
AGTAAGGTTA	1 ± 0.024
AGTAATGAAA	0.975 ± 0.035
AGTACAGGGT	0.99 ± 0.032
AGTACCGTTT	0.968 ± 0.027
AGTACTAGGA	0.993 ± 0.011
AGTACTGGCA	1.04 ± 0.061
AGTAGATGGC	1.02 ± 0.053
AGTAGCAAG	1.08 ± 0.036
AGTAGCCTGA	1.01 ± 0.013
AGTAGCTCGG	1.009 ± 0.0092
